B1: 1-phosphatidylinositol 4,5-bisphosphate phosphodiesterase gamma-2, residues 772 to 827; numbered along this chain, P16885 (parent)
chain: RTVKALYDYKAKRSDELSFCRGALIHNVSKEPGGWWKGDYGTRIQQYFPSNYVEDI

± gives the uncertainty stated by the source.

Variants of B1 are the subject of this data set. Description: abundance fitness (aPCA) (normalised: wild type 0, dead -1); higher = more abundant; growth selection in yeast, the domain comes from the species named. The note with it: Homo sapiens.
With RTVKALYDYKAKRSDELSFCRGALIHNVSKEPGGWWKGDYGWRIQQYFPSNYVEDI [T42W], the abundance fitness was -0.186 ± 0.045. The result for RTVKALYDYKAKRSDELSFCRGALIHNVSKEPGGWWKGDYGVRIQQYFPSNYVEDI [T42V] reads -0.165 ± 0.065. The result for RTVKALYDYKAKRSDELSFCRGALIHNVSKEPGGWWKGDYGIRIQQYFPSNYVEDI [T42I] reads -0.021 ± 0.074.

For RTVKALYDYKAKRSDELSFCRGALIHNVSKEPGGWWKGDYGKRIQQYFPSNYVEDI [T42K], the abundance fitness was -0.243 ± 0.13. Next, RTVKALYDYKAKRSDELSFCRGALIHNVSKEPGGWWKGDYGQRIQQYFPSNYVEDI [T42Q]: -0.262 ± 0.21; RTVKALYDYKAKRSDELSFCRGALIHNVSKEPGGWWKGDYGSRIQQYFPSNYVEDI [T42S]: 0.054 ± 0.086; RTVKALYDYKAKRSDELSFCRGALIHNVSKEPGGWWKGDYGARIQQYFPSNYVEDI [T42A]: -0.065 ± 0.06. The result for RTVKALYDYKAKRSDELSFCRGALIHNVSKEPGGWWKGDYGERIQQYFPSNYVEDI [T42E] reads 0.168 ± 0.081; that for RTVKALYDYKAKRSDELSFCRGALIHNVSKEPGGWWKGDYGGRIQQYFPSNYVEDI [T42G], 0.078 ± 0.052. The result for RTVKALYDYKAKRSDELSFCRGALIHNVSKEPGGWWKGDYGDRIQQYFPSNYVEDI [T42D] reads 0.076 ± 0.068; that for RTVKALYDYKAKRSDELSFCRGALIHNVSKEPGGWWKGDYGMRIQQYFPSNYVEDI [T42M], -0.01 ± 0.086; that for RTVKALYDYKAKRSDELSFCRGALIHNVSKEPGGWWKGDYGYRIQQYFPSNYVEDI [T42Y], -0.385 ± 0.27. Regarding RTVKALYDYKAKRSDELSFCRGALIHNVSKEPGGWWKGDYGRRIQQYFPSNYVEDI [T42R], the abundance fitness turned out to be 0.03 ± 0.063.

As for RTVKALYDYKAKRSDELSFCRGALIHNVSKEPGGWWKGDYGCRIQQYFPSNYVEDI [T42C], the abundance fitness is -0.227 ± 0.17.

Turning to RTVKALYDYKAKRSDELSFCRGALIHNVSKEPGGWWKGDYGNRIQQYFPSNYVEDI [T42N], the abundance fitness was found to be 0.139 ± 0.13. Next, RTVKALYDYKAKRSDELSFCRGALIHNVSKEPGGWWKGDYGPRIQQYFPSNYVEDI [T42P]: 0.147 ± 0.13. The result for RTVKALYDYKAKRSDELSFCRGALIHNVSKEPGGWWKGDYGLRIQQYFPSNYVEDI [T42L] reads -0.155 ± 0.079; that for RTVKALYDYKAKRSDELSFCRGALIHNVSKEPGGWWKGDYGFRIQQYFPSNYVEDI [T42F], -0.152 ± 0.043; that for RTVKALYDYKAKRSDELSFCRGALIHNVSKEPGGWWKGDYGTEIQQYFPSNYVEDI [R43E], -0.033 ± 0.085. Next, RTVKALYDYKAKRSDELSFCRGALIHNVSKEPGGWWKGDYGTCIQQYFPSNYVEDI [R43C]: -0.111 ± 0.11; RTVKALYDYKAKRSDELSFCRGALIHNVSKEPGGWWKGDYGTAIQQYFPSNYVEDI [R43A]: 0.015 ± 0.065.

Consider RTVKALYDYKAKRSDELSFCRGALIHNVSKEPGGWWKGDYGTDIQQYFPSNYVEDI [R43D], for which the abundance fitness is -0.243 ± 0.15.

Turning to RTVKALYDYKAKRSDELSFCRGALIHNVSKEPGGWWKGDYPTRIQQYFPSNYVEDI [G41P], the abundance fitness is -1.01 ± 0.13. RTVKALYDYKAKRSDELSFCRGALIHNVSKEPGGWWKGDYATRIQQYFPSNYVEDI [G41A]: the abundance fitness is -0.273 ± 0.061. Next, RTVKALYDYKAKRSDELSFCRGALIHNVSKEPGGWWKGDYITRIQQYFPSNYVEDI [G41I]: -0.566 ± 0.37; RTVKALYDYKAKRSDELSFCRGALIHNVSKEPGGWWKGDYYTRIQQYFPSNYVEDI [G41Y]: -0.557 ± 0.35. Next, RTVKALYDYKAKRSDELSFCRGALIHNVSKEPGGWWKGDYSTRIQQYFPSNYVEDI [G41S]: -0.627 ± 0.14. Next, RTVKALYDYKAKRSDELSFCRGALIHNVSKEPGGWWKGDYDTRIQQYFPSNYVEDI [G41D]: 0.069 ± 0.077; RTVKALYDYKAKRSDELSFCRGALIHNVSKEPGGWWKGDYVTRIQQYFPSNYVEDI [G41V]: -0.889 ± 0.078; RTVKALYDYKAKRSDELSFCRGALIHNVSKEPGGWWKGDYFTRIQQYFPSNYVEDI [G41F]: -0.54 ± 0.23.

In the case of RTVKALYDYKAKRSDELSFCRGALIHNVSKEPGGWWKGDYQTRIQQYFPSNYVEDI [G41Q], the abundance fitness is -0.217 ± 0.1. The result for RTVKALYDYKAKRSDELSFCRGALIHNVSKEPGGWWKGDYMTRIQQYFPSNYVEDI [G41M] reads -0.268 ± 0.12. Turning to RTVKALYDYKAKRSDELSFCRGALIHNVSKEPGGWWKGDYKTRIQQYFPSNYVEDI [G41K], the abundance fitness is -0.012 ± 0.08. Next, RTVKALYDYKAKRSDELSFCRGALIHNVSKEPGGWWKGDYTTRIQQYFPSNYVEDI [G41T]: -0.699 ± 0.17; RTVKALYDYKAKRSDELSFCRGALIHNVSKEPGGWWKGDYRTRIQQYFPSNYVEDI [G41R]: -0.234 ± 0.044; RTVKALYDYKAKRSDELSFCRGALIHNVSKEPGGWWKGDYHTRIQQYFPSNYVEDI [G41H]: -0.151 ± 0.38. Next, RTVKALYDYKAKRSDELSFCRGALIHNVSKEPGGWWKGDYCTRIQQYFPSNYVEDI [G41C]: -0.581 ± 0.21.

As to RTVKALYDYKAKRSDELSFCRGALIHNVSKEPGGWWKGDYETRIQQYFPSNYVEDI [G41E], the abundance fitness was -0.117 ± 0.068. The result for RTVKALYDYKAKRSDELSFCRGALIHNVSKEPGGWWKGDSGTRIQQYFPSNYVEDI [Y40S] reads -0.284 ± 0.093; that for RTVKALYDYKAKRSDELSFCRGALIHNVSKEPGGWWKGDNGTRIQQYFPSNYVEDI [Y40N], -0.284 ± 0.098; that for RTVKALYDYKAKRSDELSFCRGALIHNVSKEPGGWWKGDMGTRIQQYFPSNYVEDI [Y40M], -0.336 ± 0.32. Next, RTVKALYDYKAKRSDELSFCRGALIHNVSKEPGGWWKGDTGTRIQQYFPSNYVEDI [Y40T]: -0.265 ± 0.09. The result for RTVKALYDYKAKRSDELSFCRGALIHNVSKEPGGWWKGDVGTRIQQYFPSNYVEDI [Y40V] reads -0.216 ± 0.069; that for RTVKALYDYKAKRSDELSFCRGALIHNVSKEPGGWWKGDWGTRIQQYFPSNYVEDI [Y40W], -0.713 ± 0.15; that for RTVKALYDYKAKRSDELSFCRGALIHNVSKEPGGWWKGDLGTRIQQYFPSNYVEDI [Y40L], 0.041 ± 0.068.

With RTVKALYDYKAKRSDELSFCRGALIHNVSKEPGGWWKGDRGTRIQQYFPSNYVEDI [Y40R], the abundance fitness is -0.498 ± 0.067.

Regarding RTVKALYDYKAKRSDELSFCRGALIHNVSKEPGGWWKGDQGTRIQQYFPSNYVEDI [Y40Q], the abundance fitness was -0.312 ± 0.063.

The record behind these values is the Human Domainome abundance scans (Beltran et al. 2025).
